B1: Endoglin (Homo sapiens), P17813 (parent)
chain: MDRGTLPLAVALLLASCSLSPTSLAETVHCDLQPVGPERGEVTYTTSQVSKGCVAQAPNAILEVHVLFLEFPTGPSQLELTLQASKQNGTWPREVLLVLSVNSSVFLHLQALGIPLHLAYNSSLVTFQEPPGVNTTELPSFPKTQILEWAAERGPITSAAELNDPQSILLRLGQAQGSLSFCMLEASQDMGRTLEWRPRTPALVRGCHLEGVAGHKEAHILRVLPGHSAGPRTVTVKVELSCAPGDLDAVLILQGPPYVSWLIDANHNMQIWTTGEYSFKIFPEKNIRGFKLPDTPQGLLGEARMLNASIVASFVELPLASIVSLHASSCGGRLQTSPAPIQTTPPKDTCSPELLMSLIQTKCADDAMTLVLKKELVAHLKCTITGLTFWDPSCEAEDRGDKFVLRSAYSSCGMQVSASMISNEAVVNILSSSSPQRKKVHCLNMDSLSFQLGLYLSPHFLQASNTIEPGQQSFVQVRVSPSVSEFLLQLDSCHLDLGPEGGTVELIQGRAAKGNCVSLLSPSPEGDPRFSFLLHFYTVPIPKTGTLSCTVALRPKTGSQDQEVHRTVFMRLNIISPDLSGCTSKGLVLPAVLGITFGAFLIGALLTAALWYIYSHTRSPSKREPVVAVAAPASSESSSTNHSIGSTQSTPCSTSSMA

Variants of: B1
Details: with arrb2_human ARRB2, P32121
Chain of arrb2_human ARRB2, P32121 (P32121 whole entry): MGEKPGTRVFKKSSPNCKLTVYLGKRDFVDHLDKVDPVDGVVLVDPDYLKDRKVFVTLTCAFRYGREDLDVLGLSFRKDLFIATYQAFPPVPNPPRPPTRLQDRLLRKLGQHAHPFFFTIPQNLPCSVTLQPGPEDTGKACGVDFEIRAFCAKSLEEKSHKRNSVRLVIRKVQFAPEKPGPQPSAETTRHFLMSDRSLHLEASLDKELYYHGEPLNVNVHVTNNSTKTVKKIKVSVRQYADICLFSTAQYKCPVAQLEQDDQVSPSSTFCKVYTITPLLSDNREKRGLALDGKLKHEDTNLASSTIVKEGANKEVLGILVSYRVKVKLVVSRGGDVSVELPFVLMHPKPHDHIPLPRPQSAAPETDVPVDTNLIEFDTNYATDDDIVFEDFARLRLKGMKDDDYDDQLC

| effect of a mutation on the interaction | Variant |
| --- | --- |
| disrupting interaction | T650A |

From IntAct's records for PubMed 22940691
